From patent publication US20150203548A1 (GOVERNMENT OF THE UNITED STATES OF AMERICA AS REPRESENTED …, published 2015)

Target: T1, Staphylococcal Enterotoxin B (SEB) (UniProt P01552 28-266)
T1 sequence: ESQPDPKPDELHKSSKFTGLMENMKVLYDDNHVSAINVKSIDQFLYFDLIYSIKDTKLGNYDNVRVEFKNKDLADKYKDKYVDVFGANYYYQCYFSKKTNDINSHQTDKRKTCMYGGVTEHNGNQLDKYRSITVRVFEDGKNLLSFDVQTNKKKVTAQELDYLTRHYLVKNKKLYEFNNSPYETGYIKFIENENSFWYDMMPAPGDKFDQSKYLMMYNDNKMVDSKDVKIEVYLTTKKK
Experiment: SPR (ProteON XPR36), antigen-coated chip

B1: sdAb A3 (VHH)
VHH: EVQLVESGGGLVQAGDSLRLSCTASGRTFSRAVMGWFRQAPGKEREFVAAISAAPGTAYYAFYADSVRGRFSISADSAKNTVYLQMNSLKPEDTAVYYCAADLKMQVAAYMNQRSVDYWGQGTQVTVSS
Question: Does B1 bind?
Answer: binds
